Measurements as given in PMC12362409.

Legend:
TRAF2 = TRAF2 (UniProt Q12933); assay: anti-Myc co-IP, Flag immunoblot; details: reference: wild type mMAVS; sites S186,S220
TRAF3 = TRAF3 (UniProt Q13114); assay: anti-Myc co-IP, Flag immunoblot; details: reference: wild type mMAVS; sites S186,S220

binding against the reference (TRAF2): weaker | binding against the reference (TRAF3): weaker
Substance: mouse MAVS (mMAVS) (from UniProt Q8VCF0) S186A/S220A (2SA)
